Drawing on paper PMC3688715, this text covers stoichiometry N for 1 substance.

The experiment concerns the target Heteropneustes fossilis hepatic cytosolic arginase (ARG I) (Heteropneustes fossilis (endogenous in liver)). Briefly: SEC + other: SDS-PAGE and western blotting; native mass of the purified enzyme by gel filtration on Sephadex G-150 with four standard proteins (75±3 kDa); subunit mass by SDS-PAGE and western blotting (24 kDa); single band on native PAGE. (In general: A western blot detects proteins with antibodies after separation by electrophoresis.)

On to “Heteropneustes fossilis hepatic cytosolic arginase (ARG I) (enzyme)”, for which the stoichiometry N turned out to be 3.

In general, stoichiometry N refers to the number of molecules, sites or subunits per partner or assembly.
